Assay results published in patent US8298782B2, “Reversible MHC multimer staining for functional purification of antigen-specific T cells” (priority 2000, dated 2012).

Test system: LLO91-99-specific T cells
Assay: epitope-tag (HSV) staining for surface-bound MHC / dissociation experiments by flow cytometry
Assay type: cell-based
Method: FIG. 5: Development of a reversible MHC multimer staining technology. (a) LLO91-99-specific T cells were stained for 30 min with monomeric or tetrameric (“tet”) LLO91-99/H2-K^d/β2m-HSV-tag or p60217-225/H2-K^d/β2m-HSV-tag reagents. Cells were fixed without washing (upper histogram) or after 2 washing steps (lower histogram) with 1% paraformaldehyde and subsequently stained for remaining HSV-epitope-tag on the cell surface (x-axis). (b+c) LLO91-99-specific T cells were stained for 45 min with LLO91-99/H2-K^dStrep-tag® II peptide/β2-HSV-tag:Strep:Tactin® polypeptide polymers (IBA GmbH) (“poly”), briefly washed to remove unbound reagents, and incubated in the presence (b) or absence (c) of 1 mM d-biotin; all steps were performed at 4° C. Cell aliquots were harvested after different time intervals (indicated above histograms), fixed with 1% paraformaldehyde, and stained for remaining HSV-epitope-tag on the cell surface (x-axis).
FIG. 6: Improvement of MHC-Strep-tag® II peptide/Strep-Tactin® polypeptide (IBA GmbH) multimer reagents. […]
FIG. 7: Reversible MHC multimer staining and T cell function. […] (a) Staining for recombinant MHC-molecules (detected by epitope-tag staining, x-axis) on differently treated T cells. […] Numbers of viable bacteria (y-axis) were determined 48 h following Lysteria infection. […]

B1: monomeric MHC/epitope molecules: monomeric LLO91-99/H2-K^d/β2m-HSV-tag reagent (protein)
MHC heavy: GPHSLRYFVTAVSRPGLGEPRFIAVGYVDDTQFVRFDSDADNPRFEPRAPWMEQEGPEYWEEQTQRAKSDEQWFRVSLRTAQRYYNQSKGGSHTFQRMFGCDVGSDWRLLRGYQQFAYDGRDYIALNEDLKTWTAADTAALITRRKWEQAGDAEYYRAYLEGECVEWLRRYLELGNETLLRTDSPKAHVTYHPRSQVDVTLRCWALGFYPADITLTWQLNGEDLTQDMELVETRPAGDGTFQKWAAVVVPLGKEQNYTCHVHHKGLPEPLTLRWKLPPSTVSNT
b2m: IQKTPQIQVYSRHPPENGKPNILNCYVTQFHPPHIEIQMLKNGKKIPKVEMSDMSFSKDWSFYILAHTEFTPTETDTYACRVKHASMAEPKTVYWDRDM
peptide: GYKDGNEYI
modifications: left off: a dimerising Fc or GST; small tags and cut ends
notes: monomeric LLO91-99/H2-K^d/β2m-HSV-tag reagent
**Q.** What does the source list for B1?
**A.** MHC monomers on the cell surface (after brief washing, 4° C.): all reagent-derived MHC monomers disappear from the cell surface; interaction of MHC monomers with T cell surface (fixed immediately with paraformaldehyde, no washing): some detectable interaction
